The target in test [1] is T1, mouse tenascin-C rCd4-His-FBG (rat; mouse, UniProt P05540 207-392, limits assumed).
T1 construct: domain: domains 3 and 4; C-terminal FBG fusion; biotinylated in the ELISA screen; also called Mu TNC; mouse TNC rCd4-His-FBG; not shown: 6His tag
T1 sequence (chain (part 1 of 2)): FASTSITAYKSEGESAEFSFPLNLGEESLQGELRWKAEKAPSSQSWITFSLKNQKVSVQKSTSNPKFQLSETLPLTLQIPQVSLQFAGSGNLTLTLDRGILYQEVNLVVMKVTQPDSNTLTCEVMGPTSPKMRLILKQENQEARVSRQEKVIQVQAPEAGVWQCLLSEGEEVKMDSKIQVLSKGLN
T1 sequence (chain (part 2 of 2)): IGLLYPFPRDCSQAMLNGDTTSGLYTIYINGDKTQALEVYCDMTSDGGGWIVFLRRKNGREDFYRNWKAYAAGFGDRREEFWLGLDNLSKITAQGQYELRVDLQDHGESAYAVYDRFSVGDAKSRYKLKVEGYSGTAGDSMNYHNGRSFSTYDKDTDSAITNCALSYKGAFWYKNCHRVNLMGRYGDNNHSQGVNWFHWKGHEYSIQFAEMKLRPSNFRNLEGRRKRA
As to the kind of experiment: SPR off-rate screen, captured IgG4 supernatant, 25 C. How it is done: (§1) The 31 scFv of interest were sub-cloned into a human IgG4 expression vector for generation of antibodies as human IgG4 with a hinge-stabilising mutation (S241P; Angal et al, 1993). […] Briefly, surface plasmon resonance (SPR) experiments were performed using a BIAcore T100 instrument and followed the protocol according to the Human antibody capture kit protocol (GE, BR-1008-39). For off-rate screening, 10,000 response units (RU) of anti-human Fc IgG (GE, BR-1008-39) was immobilised on flow-cells (FC1 and FC2) of a Series 5 CM5 dextran sensor chip (BR-1005-30) using EDC/NHS cross-linking chemistry according to the amine coupling kit protocol (GE, BR-1000-50). Culture supernatants containing expressed IgG4 were diluted 1:2 with 2×PBS-T and injected into FC2 (flowrate 5 μl/min, 60 s contact time) to enable antibody capture at 25° C. […] A fixed concentration of antigen (15 nM of human and mouse TNC rCd4-His-FBG and 100 nM of human TNR rCd4-His-FBG) was injected with a flow-path via FC 1 (reference flow cell) and FC 2 (antibody capture flow cell), with a flow rate of 30 μl/min, and the association and dissociation phases measured over 1 and 5 min time periods, respectively. Regeneration of the binding surface employed 3M MgCl₂ with 30 s contact time. Off rates were determined by reference cell subtraction and fitting the sensogram experimental data assuming a 1:1 interaction using BIAevaluation software (GE, BR-1005-97).

Test [2] has as its target T2, human tenascin-C rCd4-His-FBG (rat; human, UniProt P05540 207-392, limits assumed).
T2 construct: domain: domains 3 and 4; C-terminal FBG fusion; biotinylated in the ELISA and HTRF screens; also called Hu TNC; human TNC rCd4-His-FBG; not shown: 6His tag
T2 sequence (chain (part 1 of 2)): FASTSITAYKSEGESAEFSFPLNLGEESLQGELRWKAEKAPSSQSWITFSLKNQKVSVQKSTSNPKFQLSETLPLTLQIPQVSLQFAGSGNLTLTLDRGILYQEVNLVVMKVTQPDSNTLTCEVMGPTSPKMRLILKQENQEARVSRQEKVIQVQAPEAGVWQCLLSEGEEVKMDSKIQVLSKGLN
T2 sequence (chain (part 2 of 2)): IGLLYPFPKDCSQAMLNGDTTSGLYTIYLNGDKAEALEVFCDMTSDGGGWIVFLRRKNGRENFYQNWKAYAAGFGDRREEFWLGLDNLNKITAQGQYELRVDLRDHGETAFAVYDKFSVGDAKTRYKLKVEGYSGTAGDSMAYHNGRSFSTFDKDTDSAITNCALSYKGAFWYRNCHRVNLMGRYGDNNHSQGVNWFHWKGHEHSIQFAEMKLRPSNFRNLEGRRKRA
Described as above. How it is done:
as §1

Bounds are passed on as bounds.

B1: 165_13_A4 human IgG4 (antibody, V domains shown)
VH: QVQLVESGGGLVQPGRSLRLSCAASGFTFDDYAMHWVRQAPGKGLEWVSGISGSGGSTYYADSVKGRFTISRDNAKNSLYLQMNSLRAEDTALYYCAKDKYPVLDTFDIWGQGTMVTVSS
VL: DIQMTQSPASLPTPVGDRVTITCRASQYIQGFLNWYQQKPGKAPKLLIYDASNLETGVPSRFSGSGSGTDFTLTISSLQPEDFATYYCQQSYSTPQTFGQGTKVDIKR
notes: human IgG4 with hinge S241P
As a reminder, the koff is a measure of how fast the partners let go of each other. For B1, the koff was 0.00797 s⁻¹ in test [1] and 0.000872 s⁻¹ in test [2].

B2: 162_02_C2 human IgG4 (antibody, V domains shown)
VH: EVRLVQSGAEVKKPGASVKVSCKVSGYTLTELSMHWVRQAPGKGLEWMGGFDPEDGETIYAQKFQGRVTMTEDTSTDTAYMELSSLRSEDTAVYYCATAQKETYALTYWGQGTLVTVSS
VL: DIQMTQSPASLPTSVGDRVTITCRASQYIQGFLNWYQQKPGKAPRLLIYAASTLQDGVPSRFSGSGYGTDFTLTISSLQPEDFATYYCMHHYRAPWTFGQGTKVEIKR
notes: human IgG4 with hinge S241P; also called Antibody 162 02 C2 (derived from 2A5)
For the molecule B2, the koff in test [1] was 0.0017 s⁻¹; in test [2] it was 1.15e-05 s⁻¹.

B3: 163_02_A12 human IgG4 (antibody, V domains shown)
VH: EVRLVQSGAEVKKPGASVKVSCKVSGYTLTELSMHWVRQAPGKGLEWMGGFDPEDGETIYAQKFQGRVTMTEDTSTDTAYMELSSLRSEDTAVYYCATAQKETYALTYWGQGTLVTVSS
VL: DIQMTQSPASLPTSVGDRVTITCRASQYIQGFLNWYQQKPGKAPRLLIYAASTLQDGVPSRFSGSGYGTDFTLTISSLQPEDFATYYCLHHYREPWTFGQGTKVEIKR
notes: human IgG4 with hinge S241P; also called Antibody 163 02 A12 (derived from 2A5)
Turning to B3, the koff in test [1] stood at 0.00094 s⁻¹; in test [2] it was 3.2e-07 s⁻¹.

B4: 160_01_E3 human IgG4 (antibody, V domains shown)
VH: EVRLVQSGAEVKKPGASVKVSCKVSGYTLTELSMHWVRQAPGKGLEWMGGFDPEDGETIYAQKFQGRVTMTEDTSTDTAYMELSSLRSEDTAVYYCATQRYVWEALTYWGQGTLVTVSS
VL: DIQMTQSPASLPTSVGDRVTITCRASQYIQGFLNWYQQKPGKAPRLLIYAASTLQDGVPSRFSGSGYGTDFTLTISSLQPEDFATYYCQQSYSTPWTFGQGTKVEIKR
notes: human IgG4 with hinge S241P; also called Antibody 160 01 E3 (derived from 2A5)
B4: in test [1], the koff was determined as 0.0559 s⁻¹.

B5: 161_01_C11 human IgG4 (antibody, V domains shown)
VH: EVRLVQSGAEVKKPGASVKVSCKVSGYTLTELSMHWVRQAPGKGLEWMGGFDPEDGETIYAQKFQGRVTMTEDTSTDTAYMELSSLRSEDTAVYYCATAQKEWLPDVTWGQGTLVTVSS
VL: DIQMTQSPASLPTSVGDRVTITCRASQYIQGFLNWYQQKPGKAPRLLIYAASTLQDGVPSRFSGSGYGTDFTLTISSLQPEDFATYYCQQSYSTPWTFGQGTKVEIKR
notes: human IgG4 with hinge S241P; also called Antibody 161 01 C11 (derived from 2A5)
Turning to B5, the koff in test [2] was 2.2e-07 s⁻¹.

B6: 162_02_F4 human IgG4 (antibody, V domains shown)
VH: EVRLVQSGAEVKKPGASVKVSCKVSGYTLTELSMHWVRQAPGKGLEWMGGFDPEDGETIYAQKFQGRVTMTEDTSTDTAYMELSSLRSEDTAVYYCATAQKETYALTYWGQGTLVTVSS
VL: DIQMTQSPASLPTSVGDRVTITCRASQYIQGFLNWYQQKPGKAPRLLIYAASTLQDGVPSRFSGSGYGTDFTLTISSLQPEDFATYYCMHHYRSPWTFGQGTKVEIKR
notes: human IgG4 with hinge S241P; also called Antibody 162 02 F4 (derived from 2A5)
For B6, the koff amounted to 0.001 s⁻¹ in test [1] and 5.9e-07 s⁻¹ in test [2].

B7: 160_01_D6 human IgG4 (antibody, V domains shown)
VH: EVRLVQSGAEVKKPGASVKVSCKVSGYTLTELSMHWVRQAPGKGLEWMGGFDPEDGETIYAQKFQGRVTMTEDTSTDTAYMELSSLRSEDTAVYYCATAQADPHLFTYWGQGTLVTVSS
VL: DIQMTQSPASLPTSVGDRVTITCRASQYIQGFLNWYQQKPGKAPRLLIYAASTLQDGVPSRFSGSGYGTDFTLTISSLQPEDFATYYCQQSYSTPWTFGQGTKVEIKR
notes: human IgG4 with hinge S241P; also called Antibody 160 01 D6 (derived from 2A5)
On to B7, for which the koff in test [1] was found to be 0.0559 s⁻¹; in test [2], 1.05e-05 s⁻¹.

B8: 160_01_H4 human IgG4 (antibody, V domains shown)
VH: EVRLVQSGAEVKKPGASVKVSCKVSGYTLTELSMHWVRQAPGKGLEWMGGFDPEDGETIYAQKFQGRVTMTEDTSTDTAYMELSSLRSEDTAVYYCATGRFVWEALTYWGQGTLVTVSS
VL: DIQMTQSPASLPTSVGDRVTITCRASQYIQGFLNWYQQKPGKAPRLLIYAASTLQDGVPSRFSGSGYGTDFTLTISSLQPEDFATYYCQQSYSTPWTFGQGTKVEIKR
notes: human IgG4 with hinge S241P; also called Antibody 160 01 H4 (derived from 2A5)
Turning to B8, the figures for the koff in test [1] and in test [2] were 0.0171 s⁻¹ and 1.6e-05 s⁻¹, respectively.

B9: 162_02_C1 human IgG4 (antibody, V domains shown)
VH: EVRLVQSGAEVKKPGASVKVSCKVSGYTLTELSMHWVRQAPGKGLEWMGGFDPEDGETIYAQKFQGRVTMTEDTSTDTAYMELSSLRSEDTAVYYCATAQKETYALTYWGQGTLVTVSS
VL: DIQMTQSPASLPTSVGDRVTITCRASQYIQGFLNWYQQKPGKAPRLLIYAASTLQDGVPSRFSGSGYGTDFTLTISSLQPEDFATYYCLHHYRAPWTFGQGTKVEIKR
notes: human IgG4 with hinge S241P; also called Antibody 162 02 C1 (derived from 2A5)
B9: the koff in test [1] was 0.0016 s⁻¹; in test [2], below 1e-05 s⁻¹.

B10: 163_02_D11 human IgG4 (antibody, V domains shown)
VH: EVRLVQSGAEVKKPGASVKVSCKVSGYTLTELSMHWVRQAPGKGLEWMGGFDPEDGETIYAQKFQGRVTMTEDTSTDTAYMELSSLRSEDTAVYYCATAQKETYALTYWGQGTLVTVSS
VL: DIQMTQSPASLPTSVGDRVTITCRASQYIQGFLNWYQQKPGKAPRLLIYAASTLQDGVPSRFSGSGYGTDFTLTISSLQPEDFATYYCLHHYKSPWTFGQGTKVEIKR
notes: human IgG4 with hinge S241P; also called Antibody 163 02 D11 (derived from 2A5)
For the molecule B10, the koff is 0.00098 s⁻¹ in test [1] and 3.2e-07 s⁻¹ in test [2].

B11: 165_13_E1 human IgG4 (antibody, V domains shown)
VH: QVQLVESGGGLVQPGRSLRLSCAASGFTFDDYAMHWVRQAPGKGLEWVSGISGSGGSTYYADSVKGRFTISRDNAKNSLYLQMNSLRAEDTALYYCAKDISAVMDVPQTWGQGTMVTVSS
VL: DIQMTQSPASLPTPVGDRVTITCRASQYIQGFLNWYQQKPGKAPKLLIYDASNLETGVPSRFSGSGSGTDFTLTISSLQPEDFATYYCQQSYSTPQTFGQGTKVDIKR
notes: human IgG4 with hinge S241P
As to B11, the koff in test [1] turned out to be 0.0577 s⁻¹; in test [2] it was 1.4e-06 s⁻¹.

B12: 165_13_B3 human IgG4 (antibody, V domains shown)
VH: QVQLVESGGGLVQPGRSLRLSCAASGFTFDDYAMHWVRQAPGKGLEWVSGISGSGGSTYYADSVKGRFTISRDNAKNSLYLQMNSLRAEDTALYYCAKALARGHDTFDIWGQGTMVTVSS
VL: DIQMTQSPASLPTPVGDRVTITCRASQYIQGFLNWYQQKPGKAPKLLIYDASNLETGVPSRFSGSGSGTDFTLTISSLQPEDFATYYCQQSYSTPQTFGQGTKVDIKR
notes: human IgG4 with hinge S241P
As to B12, the koff was found to be 0.03 s⁻¹ in test [1] and 1.4e-06 s⁻¹ in test [2].

B13: 160_01_F1 human IgG4 (antibody, V domains shown)
VH: EVRLVQSGAEVKKPGASVKVSCKVSGYTLTELSMHWVRQAPGKGLEWMGGFDPEDGETIYAQKFQGRVTMTEDTSTDTAYMELSSLRSEDTAVYYCATAQSPWSGMTYWGQGTLVTVSS
VL: DIQMTQSPASLPTSVGDRVTITCRASQYIQGFLNWYQQKPGKAPRLLIYAASTLQDGVPSRFSGSGYGTDFTLTISSLQPEDFATYYCQQSYSTPWTFGQGTKVEIKR
notes: human IgG4 with hinge S241P; also called Antibody 160 01 F1 (derived from 2A5)
As to B13, in test [2], the koff turned out to be 4e-06 s⁻¹.

B14: 180_11_F5 human IgG4 (antibody, V domains shown)
VH: QVQLVESGGGLVQPGRSLRLSCAASGFTFDDYAMHWVRQAPGKGLEWVSGISGSGGSTYYADSVKGRFTISRDNAKNSLYLQMNSLRAEDTALYYCAKVMRTGLDTFDIWGQGTMVTVSS
VL: DIQMTQSPASLPTPVGDRVTITCRASQYIQGFLNWYQQKPGKAPKLLIYDASNLETGVPSRFSGSGSGTDFTLTISSLQPEDFATYYCQQSYSTPQTFGQGTKVDIKR
notes: human IgG4 with hinge S241P; also called Antibody 180 11 F5 (derived from B12)
Take B14: the off-rate (koff) was 1 s⁻¹ in test [1] and 2.6e-05 s⁻¹ in test [2].

For the origin of these results see patent US20170306005A1 (NASCIENT, published 2017).
